Data on six molecules can be found in patent US20130023423, “TRANSPOSON NUCLEIC ACIDS COMPRISING A CALIBRATION SEQUENCE FOR DNA SEQUENCING” (Finnzymes Oy, published 2013).

Conditions in all cases: chain copies: 4
Data set [1] concerns the target T1, MuA transposase (UniProt P07636 P07636:1-663). The data set can be described thus: EMSA; transpososome complex band about 300 bp; 30 C 1 h, Tris pH 8, EDTA, NaCl, 10% DMSO; complexes fragment gDNA with 10 mM MgCl2 (FIG. 2). (In general: In EMSA bound probe runs differently from free probe, usually more slowly.)
The target of data set [2] is T1, MuA transposase. The data set can be described thus: EMSA; worked well in complex formation and gDNA fragmentation; the cited figure shows fragmentation.
Data set [3] addresses T1, MuA transposase. Kind of data set: EMSA; worked well in complex formation and gDNA fragmentation (FIG. 4).
Data set [4] deals with T1, MuA transposase. The data set can be described thus: EMSA; complexes formed and active; 30 C 1 h.
Data set [5] deals with T1, MuA transposase. Kind of data set: EMSA; no complex formed, no transposition activity; 30 C 1 h.

Changes are numbered by the printed parent chain.

T1 sequence (P07636 whole entry, the tested form may be a part, one chain of several): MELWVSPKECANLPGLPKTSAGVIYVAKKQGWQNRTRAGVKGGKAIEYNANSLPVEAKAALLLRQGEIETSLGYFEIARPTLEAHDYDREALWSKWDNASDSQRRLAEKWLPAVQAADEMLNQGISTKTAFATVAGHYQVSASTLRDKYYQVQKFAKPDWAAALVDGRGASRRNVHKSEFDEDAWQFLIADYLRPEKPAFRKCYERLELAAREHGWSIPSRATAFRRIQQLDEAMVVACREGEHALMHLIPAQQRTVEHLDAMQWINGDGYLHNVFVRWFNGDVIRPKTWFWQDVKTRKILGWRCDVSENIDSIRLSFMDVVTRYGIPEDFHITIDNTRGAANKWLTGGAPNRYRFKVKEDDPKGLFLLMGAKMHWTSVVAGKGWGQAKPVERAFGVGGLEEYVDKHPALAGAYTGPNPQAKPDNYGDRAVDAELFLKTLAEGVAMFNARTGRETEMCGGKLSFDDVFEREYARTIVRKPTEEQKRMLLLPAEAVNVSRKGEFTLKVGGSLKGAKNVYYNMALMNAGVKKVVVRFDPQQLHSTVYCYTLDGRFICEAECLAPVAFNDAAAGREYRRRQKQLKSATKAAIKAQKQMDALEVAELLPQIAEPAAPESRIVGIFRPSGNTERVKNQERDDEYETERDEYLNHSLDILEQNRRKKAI

B1: native Mu transposon end (dsDNA)
DNA 1: GTTTTCGCATTTATCGTGAAACGCTTTCGCGTTTTTCGTGCGCCGCTTCA
DNA 2: TGAAGCGGCGCACGAAAAACGCGAAAGCGTTTCACGATAAATGCGAAAAC
For the molecule B1, the binding result with MuA transposase [1] was “binds”.

B2: Mu end modified at 10th and 11th bases (dsDNA)
DNA 1: B1 DNA 1 with G40C, C41A
DNA 2: B1 DNA 2 with G10T, C11G
As for B2, in the data set with MuA transposase [2], the binding result is reported as “binds”.

B3: Mu end with internal TCAG key (5th, 6th, 8th bases) (dsDNA)
DNA 1: B1 DNA 1 with C43T, G45A, C46G
DNA 2: B1 DNA 2 with G5C, C6T, G8A
For B3, in the data set with MuA transposase [3], the binding result is “binds”.

B4: Mu end with GTCA key (dsDNA)
DNA 1: B1 DNA 1 with T47G
DNA 2: B1 DNA 2 with A4C
Regarding B4, the binding result with MuA transposase [4] is “binds”.

B5: Mu end with 3' TCAG key (dsDNA)
DNA 1: B1 DNA 1 with T48C, C49A, A50G
DNA 2: B1 DNA 2 with T1C, G2T, A3G
In the case of B5, the binding result in the data set with MuA transposase [5] is given as “no binding”.

B6: Mu end with TGCA key (dsDNA)
DNA 1: B1 DNA 1 with T48G
DNA 2: B1 DNA 2 with A3C
As to B6, the binding result in the data set with MuA transposase [4] is “binds”.
